Test results: US20240279341A1 (Alector, published 2024)
One block for each binder: values may come before it.

What was measured:
[1] = target: T1, human PDL1 (human, UniProt Q9NZQ7 19-290); assay: flow cytometry on CHO-huPDL1 OE cells, Dylight650-conjugated antibody
T1 construct: whole, on cells; Also used as the target for the monovalent anti-PDL1 antibody on M2c-differentiated human macrophages (endogenous PDL1); also called huPDL1; programmed death-ligand 1
Source text: (§1) Human macrophages were differentiated from human monocytes for 7 days in the presence of human M-CSF, resulting in M2c-differentiated human macrophages. After 7 days, the differentiated human macrophages were harvested (by scraping), resuspended in PBS, and plated on 96-well plates for use. CHO cells overexpressing human MerTK (CHO-huMerTK OE), CHO cells overexpressing human PDL1 (CHO-huPDL1 OE), and M2c-differentiated human macrophages were stained with Dylight650-conjugated bispecific anti-MerTK:anti-PDL1 antibodies, or bivalent anti-MerTK antibodies for 30 min on ice. A range of antibody concentrations were used in these studies to obtain binding curves. All antibodies tested in these studies were IgG1 having Fc regions comprising LALAPS mutations. Cells were fixed and then acquired on a BD FACS Canto II cytometer. The mean fluorescence intensity (MFI) was calculated using FlowJo software and Kd value was calculated using Prism software.

[2] = target: T2, human MerTK overexpressed on CHO cells (human, UniProt Q12866 21-999); assay: flow cytometry on CHO-huMerTK OE cells
T2 construct: also called CHO-huMerTK OE; CHO-human MerTK OE cells
T2 sequence: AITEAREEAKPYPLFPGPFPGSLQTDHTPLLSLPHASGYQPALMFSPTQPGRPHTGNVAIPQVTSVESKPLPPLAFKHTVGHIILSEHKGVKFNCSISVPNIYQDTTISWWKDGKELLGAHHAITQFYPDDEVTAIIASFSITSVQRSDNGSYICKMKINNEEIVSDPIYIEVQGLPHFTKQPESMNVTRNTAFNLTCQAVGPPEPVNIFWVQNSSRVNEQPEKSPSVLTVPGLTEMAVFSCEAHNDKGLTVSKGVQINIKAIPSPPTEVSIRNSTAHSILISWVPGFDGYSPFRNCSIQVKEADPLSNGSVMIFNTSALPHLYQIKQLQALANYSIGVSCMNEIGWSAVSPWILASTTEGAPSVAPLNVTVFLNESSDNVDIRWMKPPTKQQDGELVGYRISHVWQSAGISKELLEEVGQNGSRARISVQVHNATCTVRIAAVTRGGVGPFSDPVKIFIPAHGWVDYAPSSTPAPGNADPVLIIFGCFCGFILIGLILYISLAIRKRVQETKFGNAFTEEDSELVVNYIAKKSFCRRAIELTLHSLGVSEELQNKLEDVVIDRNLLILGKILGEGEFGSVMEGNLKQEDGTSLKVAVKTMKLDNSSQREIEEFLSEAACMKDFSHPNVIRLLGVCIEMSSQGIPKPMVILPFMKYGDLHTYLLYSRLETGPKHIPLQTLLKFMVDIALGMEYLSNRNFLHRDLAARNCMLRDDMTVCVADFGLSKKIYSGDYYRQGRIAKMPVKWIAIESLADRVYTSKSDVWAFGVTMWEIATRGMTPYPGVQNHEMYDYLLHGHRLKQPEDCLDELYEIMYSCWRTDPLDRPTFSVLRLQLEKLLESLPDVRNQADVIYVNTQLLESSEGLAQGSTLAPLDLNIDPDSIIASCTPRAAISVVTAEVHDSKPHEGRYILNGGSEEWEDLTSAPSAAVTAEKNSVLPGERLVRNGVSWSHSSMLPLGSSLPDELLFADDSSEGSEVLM
Source text: as §1

[3] = target: T3, human MerTK on M2c-differentiated human macrophages (human, UniProt Q12866 21-999); assay: flow cytometry on M2c-differentiated human macrophages
T3 construct: Endogenous MerTK of primary human macrophages; also called M2c-huMacrophages
T3 sequence: T2 sequence
Source text: as §1

[4] = target: T1, human PDL1; assay: flow cytometry, Dylight650-conjugated antibody on CHO-huPDL1 OE cells, MFI
Protocol: (§2) To determine whether bispecific anti-MerTK:anti-PDL1 antibodies of the present disclosure bind to different cell types, the following experiments were performed. Cells used in these studies included CHO cells overexpressing human MerTK (CHO-human MerTK OE cells), CHO cells overexpressing human PDL1 (CHO-human PDL1 OE cells), and M2c-differentiated human macrophages.
as §1

[5] = target: T2, human MerTK overexpressed on CHO cells; assay: flow cytometry, Dylight650-conjugated antibody on CHO-huMerTK OE cells, MFI
Protocol: as §2, §1

T1 sequence (Q9NZQ7 19-290): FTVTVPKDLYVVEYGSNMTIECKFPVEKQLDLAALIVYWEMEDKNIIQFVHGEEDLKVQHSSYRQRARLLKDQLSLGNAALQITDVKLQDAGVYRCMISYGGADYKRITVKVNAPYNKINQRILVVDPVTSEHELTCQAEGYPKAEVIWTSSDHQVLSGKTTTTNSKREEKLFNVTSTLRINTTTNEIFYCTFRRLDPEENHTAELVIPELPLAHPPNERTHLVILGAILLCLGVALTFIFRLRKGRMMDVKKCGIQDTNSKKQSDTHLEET

B1: monovalent anti-MerTK antibody MTK-33.11 (antibody, V domains shown)
VH: QVQLVQSGAEVKKPGASVKVSCKASGYTFTSYWMHWVRQAPGQGLEWIGVIDPSDNYINYNQKFQGRVTMTRDTSTSTVYMELSSLRSEDTAVYYCAREAWTRGYFDYWGQGTLVTVSS
VL: DIQMTQSPSSLSASVGDRVTITCQASRSVRNTVAWYQQKPGKAPKLLIYYASNRYTGVPSRFSGSGSGTDFTFTISSLQPEDIATYYCQQDYRSPFTFGQGTKLEIK
binding result [1]: no binding

B2: bivalent anti-MerTK antibody MTK-33.11 (full IgG) (antibody, V domains shown)
VH: B1 VH
VL: DIQMTQSPSSLSASVGDRVTITCQASRSVRNTVAWYQQKPGKAPKLLIYYASNRYTGVPSRFSGSGSGTDFTFTISSLQPEDIATYYCQQDYRSPFTFGQGTKLEIKR
fold higher affinity compared to its monovalent form (monovalent MTK-33.11) [2]: ~10 fold
fold higher affinity compared to its monovalent form (monovalent MTK-33.11) [3]: ~5 fold
binding result [4]: no binding (tested: about 70 nM)
EC50 (read off the curve) [5]: ~4 nM

More lines, now with the values ahead:

binding result [1]: no binding
B3: monovalent anti-MerTK antibody MTK-16.2 (antibody, V domains shown)
VH: QVQLVQSGSELKKPGASVKVSCKASGYTFTNHGMNWVRQAPGQGLEWMGWINTYTGEPTYADDFKGRFVFSLDTSVSTAYLQISSLKAEDTAVYYCARKGVTAARYFDYWGQGTLVTVSS
VL: DIQMTQSPSSLSASVGDRVTITCRASQNVRTAVAWYQQKPGKAPKRLIYLASNRHTGVPSRFSGSGSGTEFTLTISNLQPEDFATYYCLQHWNYPLTFGGGTKLEIK

binding result [4]: no binding (tested: about 70 nM)
B4: bivalent anti-MerTK antibody MTK-16.2 (full IgG) (antibody, V domains shown)
VH: B3 VH
VL: DIQMTQSPSSLSASVGDRVTITCRASQNVRTAVAWYQQKPGKAPKRLIYLASNRHTGVPSRFSGSGSGTEFTLTISNLQPEDFATYYCLQHWNYPLTFGGGTKLEIKR
